Target: β-catenin (endogenous in HEK293 cells) (human (endogenous in HEK293)) (UniProt P35222)
Assay: co-IP; reciprocal immunoprecipitation from stable HEK cell lysates with protein A/G agarose, anti-β-catenin antibody or rabbit antibody BsloC; western blot; 0.5% DDM

Sequence of UniProt P35222 (P35222 whole entry): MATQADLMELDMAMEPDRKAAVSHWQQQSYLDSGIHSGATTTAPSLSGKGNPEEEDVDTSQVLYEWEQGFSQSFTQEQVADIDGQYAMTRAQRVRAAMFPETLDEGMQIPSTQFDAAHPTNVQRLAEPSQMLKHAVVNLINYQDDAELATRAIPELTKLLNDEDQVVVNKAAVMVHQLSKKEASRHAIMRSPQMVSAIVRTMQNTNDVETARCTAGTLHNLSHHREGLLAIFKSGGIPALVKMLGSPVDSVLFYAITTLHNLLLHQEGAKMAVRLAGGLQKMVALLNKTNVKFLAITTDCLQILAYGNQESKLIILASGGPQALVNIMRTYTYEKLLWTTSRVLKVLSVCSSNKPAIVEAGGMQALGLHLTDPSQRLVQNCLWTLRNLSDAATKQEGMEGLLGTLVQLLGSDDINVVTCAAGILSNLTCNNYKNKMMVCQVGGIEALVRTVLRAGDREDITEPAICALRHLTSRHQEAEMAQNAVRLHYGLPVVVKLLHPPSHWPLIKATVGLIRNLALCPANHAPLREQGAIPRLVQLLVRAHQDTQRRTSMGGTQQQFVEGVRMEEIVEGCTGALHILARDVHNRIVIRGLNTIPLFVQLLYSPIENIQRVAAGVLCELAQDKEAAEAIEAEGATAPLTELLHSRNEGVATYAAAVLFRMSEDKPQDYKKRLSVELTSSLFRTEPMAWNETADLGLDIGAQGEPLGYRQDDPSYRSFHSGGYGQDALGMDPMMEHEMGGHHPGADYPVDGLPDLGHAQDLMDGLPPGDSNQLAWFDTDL

## HSloΔS10 (HSlo deletion construct lacking the S10 region) (natural protein)
  ratio of HSlo in β-catenin immunoprecipitates, wild type HSlo to HSloΔS10 (fold (wild type over HSloΔS10)): 4

— PMC3237428
